{"source": "patent US8809529B2", "about": "“Imidazo[1,2-α]pyrazine derivatives” (Promega Corporation, priority 2010, dated 2014)", "molecules": {"B1": {"name": "L27V: 9B8 opt+K33N variant with L27V, T39T, K43R, Y68D (protein)", "chain": "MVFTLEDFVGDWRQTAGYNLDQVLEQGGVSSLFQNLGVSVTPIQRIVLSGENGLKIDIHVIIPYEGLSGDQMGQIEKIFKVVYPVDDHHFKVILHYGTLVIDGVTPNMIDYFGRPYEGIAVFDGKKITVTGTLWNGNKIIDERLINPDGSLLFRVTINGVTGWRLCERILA"}, "B2": {"name": "9B8: IV variant with Q18L, F68Y, L72Q, M75K; in Tables 12, 22, 23, 26, 27 “9B8” stands for 9B8 opt (protein)", "chain": "B1 chain with V29L, N35K, R45K, D70Y"}, "B3": {"name": "9B8 opt: codon optimized version of the 9B8 variant (protein)", "chain": "B1 chain with V29L, N35K, R45K, D70Y"}}, "key": {"[1]": {"test": "Luminescence of OgLuc variants expressed in HEK293 cells", "type": "cell-based, human", "settings": "for Increase in Luminescence: HEK293: normalized to 9B8 opt", "protocol": "(§1) The PCR library in the pF4Ag-based non-fusion background was screened for additional variants with increased luminescence compared to 9B8 opt+K33N+170G (SEQ ID NOs: 68 and 69). Selected variants were then assayed in HEK293 and NIH3T3 cells. For each cell type, 15,000 cells were plated and grown overnight at 37° C. The next day, the cells were transfected as described in Example 25 with 10 ng pGL4.13 (Promega Corp.) as a transfection control and 100 ng of the OgLuc test DNA. The media was removed, and the cells were lysed with 100 μL of lysis buffer as described in Example 25 except the lysis buffer contained 100 mM MES pH 6.0 instead of HEPES, and luminescence measured using a GLOMAX® Luminometer.\n(§2) Based on the above data, further combination variants were designed and generated (see Table 10) in the context of the pF4Ag-based non-fusion vector background without the 170G. The variants were analyzed in E. coli, HEK293 and NIH3T3 cells as described above and compared to 9B8 opt+K33N. The variants were also examined for luminescence with native coelenterazine.\n(§3) The brightness of the variants expressed in HEK293 and NIH3T3 cells was measured as described previously. The luminescence of the variants was normalized to the luminescence generated by 9B8 opt (Table 27).\n(§4) The variants 9B8 opt+K33N+T39T+K43R+Y68D (“V2”; SEQ ID NOs: 92 and 93), 9B8 opt+K33N+L27V+K43R+Y68D (SEQ ID NOs: 339 and 340), 9B8 opt+K33N+L27V+T39T+K43R+S66N (SEQ ID NOs: 341 and 342), and 9B8 opt+K33N+L27V+T39T+K43R+Y68D (“L27V”; SEQ ID NOs: 88 and 89) were subcloned into the Id-OgLuc-HT7 sandwich background as described above and assayed in HEK293 and NIH3T3 cells as described above. The luminescence generated by the sandwiched variants were compared to the luminescence generated by the […] sandwich (SEQ ID NOs: 59 and 60) (Table 38). The L27V sandwich (SEQ ID NOs: 90 and 91) and V2 sandwich (SEQ ID NOs: 94 and 95) had at least 1.3× fold-increase in luminescence in HEK293 and NIH3T3 cells.\n(§5) The sandwich and non-sandwich versions of the variants V2, 9B8 opt+K33N+L27V+K43R+Y68D, 9B8 opt+K33N+L27V+T39T+K43R+S66N, and L27V were assayed in HEK293 and NIH3T3 cells as described in Example 37. The luminescence generated by the non-sandwiched variants was compared to the luminescence generated by the sandwiched variants (Table 39)."}, "[2]": {"test": "Luminescence of OgLuc variants expressed in NIH3T3 cells", "type": "cell-based", "settings": "for Increase in Luminescence: NIH3T3: normalized to 9B8 opt", "protocol": "as §1, §2, §3, §4, §5"}, "[3]": {"type": "biochemical, E. coli", "protocol": "The signal stability of 15C1 with PBI-3945 and 9B8 with PBI-3889 was measured and compared to IV. E. coli containing plasmid DNA encoding 15C1, 9B8, or IV were grown and induced as described previously in 8-well replicates. Cells were lysed using a lysis buffer containing of 300 mM HEPES pH 8.0, 0.3× Passive Lysis Buffer (“PLB”; Promega Corp. Cat. No. E194A), 0.3 mg/mL lysozyme, and 0.003 U/μL RQ1 DNase. Lysates were diluted 1:1000 in lysis buffer and measured for luminescence using a TECAN® INFINITE® F500 luminometer. Measurements were taken immediately after the addition to 10 μL of diluted lysate sample of 50 μL of “Glo” 0.5% TERGITOL assay buffer (“0.5% TERGITOL”), which contained 150 mM KCl, 1 mM CDTA, 10 mM DTT, 100 mM thiourea, 0.5% TERGITOL® NP-9 (v/v), and 20 μM of either novel coelenterazines PBI-3945 or PBI 3889.\nThe signal stability of the variants was determined by re-reading the plate every 30 seconds for a length of time after the addition of the assay buffer to the sample. The signal half-life was determined from these measurements using methods known in the art. The average signal half-life was compared between the variants and IV. […] At t=10 min, luminescence for 15C1 with PBI-3945 and 9B8 with PBI-3889 were equivalent.\nE. coli lysates containing the variants were prepared and analyzed as described previously except the assay buffer contained 0.25% TERGITOL® NP-9 (v/v), 100 mM MES pH 6.0, 1 mM CDTA, 150 mM KCl, 35 mM thiourea, 2 mM DTT, and 20 μM PBI-3939."}, "[4]": {"test": "Enzyme kinetics of OgLuc variants (Km, Vmax)", "type": "biochemical, E. coli", "settings": "PBI-3939, average of three replicates", "protocol": "Using methods known in the art, enzyme kinetic assays measuring luminescence were performed with the lysates of E. coli containing N and the IV variants 15C1, 9B8, 9F6, and 9A3. […] Two fold serial dilutions of PBI-3939 in the assay buffer described previously in Example 26 were assayed with the diluted lysates. […] Variants 9B8 and 9F6 had higher Km values compared to IV while Km values for the other variants were unchanged.\nLuminescence was measured on a TECAN® INFINITE® F500 luminometer.\nThe enzyme kinetics values were determined for the OgLuc variants as described previously, except luminescence was measured using a GLOMAX® luminometer. Three replicates were used for each variant."}, "[5]": {"type": "physicochemical, E. coli", "settings": "for ½ life hours: 60° C., assay buffer 100 mM MES pH 6.0", "protocol": "Aliquots were removed at different time-points and placed on dry ice to freeze the samples. […] Luminescence was measured on a GLOMAX® luminometer (Promega Corp.).\nThe thermal stability of the variants at 60° C. was examined as described above, except the assay buffer contained 100 mM MES pH 6.0 instead of HEPES."}, "[6]": {"settings": "relative specificity for PBI-3939"}}, "note": "Numbering of substitutions follows the chain as printed. Numbers in names are those of the source."}
{"molecule": "B1", "values": [{"measurement": "Fold-Decrease in Luminescence in the Presence of Sandwich Background: HEK 293", "setting": "[1]", "result": 6}, {"measurement": "Fold over 9B8 opt + K33N: HEK293", "setting": "[1]; luminescence, PBI-3939", "result": 0.8}, {"measurement": "Increase in Luminescence: HEK293", "setting": "[1]", "result": 1.6}, {"measurement": "Fold over Native Coelenterazine: HEK293", "setting": "[1]; [6]", "result": 97}, {"measurement": "Fold-Decrease in Luminescence in the Presence of Sandwich Background: NIH 3T3 cells", "setting": "[2]", "result": 18}, {"measurement": "Fold over 9B8 opt + K33N: NIH3T3", "setting": "[2]; luminescence, PBI-3939", "result": 0.7}, {"measurement": "Increase in Luminescence: NIH3T3", "setting": "[2]", "result": 1.6}, {"measurement": "Fold over Native Coelenterazine: NIH3T3", "setting": "[2]; [6]", "result": 85}, {"measurement": "signal half life", "setting": "[3]", "result": 1.9, "unit": "h"}, {"measurement": "Km", "setting": "[4]", "result": 13.9, "unit": "µM"}, {"measurement": "Vmax", "setting": "[4]", "result": "190,000,000 RLU/0.5 sec"}, {"measurement": "½ life hours", "setting": "[5]", "result": 21.7, "unit": "h"}]}
{"molecule": "B2", "values": [{"measurement": "Increase in Luminescence: HEK293", "setting": "[1]", "result": 1.0}, {"measurement": "Increase in Luminescence: NIH3T3", "setting": "[2]", "result": 1.0}, {"measurement": "signal half life", "setting": "[3]", "result": 1.23, "unit": "h"}, {"measurement": "signal half-life", "setting": "[3]", "result": "at least 30 min"}, {"measurement": "Km", "setting": "[4]", "result": 7.7, "unit": "µM"}, {"measurement": "Vmax", "setting": "[4]", "result": "86,000,000 RLU/0.5 sec"}, {"measurement": "½ life hours", "setting": "[5]", "result": 5.1, "unit": "h"}]}
{"molecule": "B3", "values": [{"measurement": "RLU", "setting": "[5]; luminescence at start of incubation (t=0)", "result": "23,283,252,000 RLU"}, {"measurement": "T1/2(60° C.)", "setting": "[5]; pH 7", "result": 5.7, "unit": "h"}]}
